Results: patent US8598081B2, “Specific delivery of agrochemicals” (priority 2010, dated 2013)

T1: potato lectin (Solanum tuberosum, UniProt Q9S8M0)
T1 construct: purchased Sigma
T1 sequence (Q9S8M0 whole entry, looked up): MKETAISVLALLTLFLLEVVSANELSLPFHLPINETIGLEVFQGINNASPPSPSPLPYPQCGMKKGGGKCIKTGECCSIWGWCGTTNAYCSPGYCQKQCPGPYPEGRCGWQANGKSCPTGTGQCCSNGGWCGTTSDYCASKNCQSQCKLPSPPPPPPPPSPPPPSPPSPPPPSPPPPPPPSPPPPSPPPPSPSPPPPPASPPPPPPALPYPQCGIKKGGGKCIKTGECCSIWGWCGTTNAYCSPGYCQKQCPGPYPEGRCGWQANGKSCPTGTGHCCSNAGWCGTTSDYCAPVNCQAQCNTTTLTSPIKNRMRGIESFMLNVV


What was measured:
[1] = target: T1, potato lectin; test: VHH binding to potato lectin in ELISA; settings: Table 2; Blank (no antigen coating); VHH 3 μg/ml
Protocol: ELISA plates (Maxisorp, Nunc) coated with 100 μl per well 100 μg/ml potato lectin (Sigma) in PBS were coated at 4° C. overnight and coating was continued at room temperature for 1 hour on the next day. Plates were washed three times with PBS/0.05%-TWEEN®-20 and blocked with 5% skimmed milk in PBS for 1 hour. VHH (3 μg/ml) were transferred to the potato lectin-coated plates and VHH antibody fragments were allowed to bind for 1 hour at room temperature. Bound VHH were detected with sequential incubations with monoclonal mouse anti-histidine antibodies (Abd Serotec) and rabbit anti-mouse IgG whole molecule antibodies conjugated with alkaline phosphatase (RaM/AP) (Sigma) in 1% MPBS/0.05%-TWEEN®-20. Unbound antibodies were removed by washing three times with PBS/0.05%-TWEEN®-20 after each antibody incubation. The plates were washed an additional two times with PBS and 100 μl pNPP disodium hexahydrate substrate (Sigma) was added to each well and the absorbance at 405 nm was measured (see Table 2).

[2] = system: surface of black nightshade leaves; test: VHH binding to non-fixed leaf discs, black nightshade; settings: 5 μg/ml, detection with anti-histidine Alexa-488
Protocol: VHH binding to non-fixed leaf discs of potato (variety Desiree), black nightshade, grass, wheat or azalea was investigated. For comparison, binding of CBM3a to non-fixed leaf discs of potato (variety Desiree) was analyzed in parallel. Leaf discs were prepared by punching a fresh potato leaf with a 5 mm belt hole puncher tool. Leaf discs were put immediately in wells of a 96-well plate containing 200 μl per well 5% MPBS or PBS, and incubated for 30 minutes. Leaf discs were transferred to solutions containing 5 μg/ml VHH antibody fragment, respectively, 5 μg/ml CBM3a in 2% MPBS or PBS and incubated for 60-90 minutes. Unbound VHH or CBM3a proteins were removed by washing three times with 2% MPBS or PBS. Bound VHH or CBM3a proteins were detected with incubation with monoclonal mouse anti-histidine antibodies directly conjugated with Alexa-488 fluorescent dye (Abd Serotec) in 1% MPBS for 1 hour. Unbound antibodies were removed by washing three times with PBS. Leaf discs were put on glass slides, covered with cover slips, and analyzed by microscopy or on a macrozoom microscope system (Nikon) or a SP5 confocal microscope system (Leica).

[3] = ELISA-like assay of VHH-coupled microcapsules, unrelated antigen-coated wells; format: binding; settings: uvitex OB microcapsules
Protocol: Polyurea microcapsules were produced by interfacial polymerization. With the objective to generate functionalized polyurea microcapsules, VHH were coupled to microcapsules containing either the insecticide lambda cyhalothrin or the fluorescent tracer molecule Uvitex OB and a shell with incorporated lysine to surface-expose carboxylic acid residues. Lambda cyhalothrin was dissolved in benzyl benzoate in concentrations between 30% and 66% before encapsulation. Alternatively, a core of 1.5% Uvitex in benzyl benzoate was used for easy fluorescent visualization of microcapsules. Toluene diisocyanate (TDI) and polymethylenepolyphenylene isocyanate (PMPPI) were dissolved in the oil phase in different ratios and concentrations in the oil phase to produce desired shell characteristics. Stirring speed for the emulsion was varied to control droplet size and consequently microcapsule diameter. Microcapsules with approximate diameters of 5 μm, 10 μm, or 50 μm were successfully produced. Bifunctional lysine and trifunctional diethylene triamine (DETA) were used in different ratios and/or added sequentially during encapsulation to on the one hand maximize amounts of carboxylic acids on the microcapsules' surface and on the other hand obtain sufficient strength of capsule shells. Microcapsules were washed with water after production and stored as microcapsule suspensions in water. The microcapsules were washed with 100 mM MES, 500 mM NaCl, pH 6.0 immediately before coupling of VHH using a vacuum-tight filter flask and P 1.6 filter funnel (Duran). Alternatively, glass filter holders with 0.45 μm disposable membrane filters (Millipore) or 0.45 μm 96-well deep-well filtration plates (Millipore) were used. Couplings of VHH to microcapsules were performed using carbodiimide-mediated couplings using a one-step procedure, a two-step procedure without N-hydroxysuccinimide (NHS), or a two-step procedure with NHS. The major difference between one-step coupling and two-step coupling procedures is the occurrence of cross-linking of VHH in one-step coupling procedures. The protocols for the three procedures are largely similar and differ as follows. For one-step couplings VHH were added to washed microcapsules and 1-Ethyl-3-[3-dimethylaminopropyl]carbodiimide Hydrochloride (EDC) (Pierce) was added and coupling reaction was allowed for 2 hours at room temperature. For two-step couplings washed microcapsules were first activated with EDC in the presence or absence of NHS. Excess unreacted EDC (and NHS) were removed by quick sequential washes with ice-cold buffers and VHH were added and allowed to react with activated carboxylic acids on microcapsule shells. For ø 10 μm microcapsules 2-20 μg VHH were coupled per mg microcapsules. […]

Molecule	absorbance at 405 nm [1]	binding to native black nightshade leaf surface (fluorescence microscopy) [2]	binding to native black nightshade leaf surface (fluorescence microscopy) ([2]; listed as 3E6)	Area of bound microcapsules ([3]; no coating (second series, with unrelated antigen rows), surface coverage 100%)	Area of bound microcapsules ([3]; unrelated antigen, surface coverage 4%)	Area of bound microcapsules ([3]; unrelated antigen, surface coverage 20%)	Area of bound microcapsules ([3]; unrelated antigen, surface coverage 100%)
VHH 3E6: VHH binding gum arabic, potato lectin and leaf surface; SEQ ID NO:7 by order of the list (protein, listed as Lama glama, 3E6) VHH: QVQLQESGGGLVQPGGTLSLSCAASGFNVRWYGMGWFRQAPGKEREGVACISALQETTAYADSVKGRFTLSRDNPKNTLSLQMNNLQPEDTGVYYCATTDCDDSSRMTYTSYLGQGTQVTVSS	0.067	binding leaf surface, glandular trichomes, and leaf hairs	bind specifically				
Microcapsules containing uvitex OB VHH 3E6: polyurea microcapsules containing the fluorescent tracer Uvitex OB, coupled with (monovalent) VHH 3E6 (conjugate, left off: small tags and cut ends, polyurea microcapsules containing the fluorescent tracer Uvitex OB, coupled with (monovalent) VHH 3E6) VHH: QVQLQESGGGLVQPGGTLSLSCAASGFNVRWYGMGWFRQAPGKEREGVACISALQETTAYADSVKGRFTLSRDNPKNTLSLQMNNLQPEDTGVYYCATTDCDDSSRMTYTSYLGQGTQVTVSS				68.181	23.525	47.906	84.508
